Results taken from article doi:10.1101/2025.01.14.632876v1.

Substrate: NC(=O)c1ccc[n+]([C@@H]2O[C@H](COP(=O)(O)OP(=O)(O)OC[C@H]3O[C@@H](n4cnc5c(N)ncnc54)[C@H](O)[C@@H]3O)[C@@H](O)[C@H]2O)c1
Experiment: purified protein
Details: G6PDH activity, co-substrate G6P, 2 M KCl, 100 mM Tris-HCl pH 8.5

B1: HvG6PDH (Haloferax volcanii DS2) (protein)
chain: MDQPVLLTGAGGRVGQAILGHIGDAYDWRLLDREPLSDEKIPDSVDSTEVYVADVTDETAVRNAMDGVHAVIHLAGDPRPEAPWDSVLRNNIDGTQQMFDAAVDVGVEKFAFASSNHAVGAYETTDRTPDMYRPHHEFRLDGTELPRPSNLYGVSKAAGETLGRYYHDHHDISVVNVRIGNLTQHHPPKEYERGQAMWLSYRDCGHLFECCIEADYDYEIVYGISDNDRKYYSIDRARAVLGYDPQDNSAEFTFEGEPLDEA
Work on B1 yielded a Km of 198 ± 6 µM and a kcat of 42.5 ± 0.1 s⁻¹.
